{"source": "paper PMC2673414", "about": "(Nucleic Acids Research, 2009)", "proteins": {"B1": {"name": "human TREX2 protein (enzyme)", "chain": "MSEAPRAETFVFLDLEATGLPSVEPEIAELSLFAVHRSSLENPEHDESGALVLPRVLDKLTLCMCPERPFTAKASEITGLSSEGLARCRKAGFDGAVVRTLQAFLSRQAGPICLVAHNGFDYDFPLLCAELRRLGARLPRDTVCLDTLPALRGLDRAHSHGTRARGRQGYSLGSLFHRYFRAEPSAAHSAEGDVHTLLLIFLHRAAELLAWADEQARGWAHIEPMYLPPDDPSLEA"}}, "target": "the molecule itself", "experiment": "crystal structure"}
{"protein": "B1", "values": [{"measurement": "binding result", "result": "binds"}]}
